Experimental data: patent publication US7223834 (Bristol-Myers Squibb, dated 2007)
Ends that are not written are not given here. * marks the point of attachment. Biotin = O=C1N[C@H]2[C@H](CS[C@H]2CCCCC(=O)*)N1

Biological target: aggrecan degrading metallo protease (ADMP)
Assay: cell-based or functional assay

B1: 30-mer inhibitor peptide (30-IP), QTVTWPDMELPLPRNITEGQARGSVILTVK-Biotin (peptide)
peptide: QTVTWPDMELPLPRNITEGQARGSVILTVK(Biotin)
modifications: not fully specified (N-terminus, C-terminus); printed as QTVTWPDMELPLPRNITEGQARGSVILTVK-Biotin
IC50 for the inhibition of ADMP activity (microplate assay, cleavage of plate-bound 41-PS detected with BC-3 antibody): 11 µM
